From paper PMC2174347 (The Journal of Cell Biology, 2000) come the findings set out here.

The target in the experiment is wild-type ezrin 1-586 (UniProt P15311 1-586). As to the kind of experiment: solid phase assay.

B1: ezrin 1-333 K63N, K64N, K253N, K254N, K262N, and K263N (domain or fragment, UniProt P15311 1-333, looked up)
chain: MPKPINVRVTTMDAELEFAIQPNTTGKQLFDQVVKTIGLREVWYFGLHYVDNKGFPTWLKLDNNVSAQEVRKENPLQFKFRAKFYPEDVAEELIQDITQKLFFLQVKEGILSDEIYCPPETAVLLGSYAVQAKFGDYNKEVHKSGYLSSERLIPQRVMDQHKLTRDQWEDRIQVWHAEHRGMLKDNAMLEYLKIAQDLEMYGINYFEIKNKKGTDLWLGVDALGLNIYEKDDKLTPKIGFPWSEIRNISFNDNNFVIKPIDNNAPDFVFYAPRLRINKRILQLCMGNHELYMRRRKPDTIEVQQMKAQAREEKHQKQLERQQLETEKKRRETV
For B1, the binding result was “binds”.
